According to a protein production outcome set (Wang et al. 2014):

assay: label from the status in PepcDB records

For “MQQFHIRRLREEDIPLLKGLLVELDTSHYEAEPNFYRSPEEMAQLREERGVFDKYFDDSMIAFIACSHRQVVGFISGTVRDIDSMVSVAKRVGFVNELVVSESHRNLGIGLSLMDKIESDLCNQGIEEIGLTVASFNHEGEDFYHKMGYRVMTKMMSKRVKDLEHHHHHH”, which protein production is on record?
Its protein production is “not failed”.

Which protein production does the source give for “MQQINFYRQRVAINVLAKDIANAKAIYEAAEGHAVIGVLSAQFATVEEGVPEVKRWMAEVPSISVGLGAGDPAQYYKAAMIAAHTHPAHVNQTFTGSGFAAGALAATGGEQTHINALVSPTGTPGEVVISTGVSSSQGTPARVSCEAAVRMMQDMGAHAAKFFPMGGEKSLPELYALATTAARHGMTLIEPTGGISLDNFGIILQTCLEAGVPRVMPHVYSSIIDPQTGNTRPEDIIQLMEIVKALV” here?
Its protein production is “failed”.

Which protein production does the source give for “MQQIWGSERRRTAIGRMALSVPARQALADRQLVAERTILDYGCGRGDDVRALQQLDCQVVGWDPYYRTDTQLVATDVVLLTYVLNVIEDPAERRQTLKQAWELTSTLLVVSARLTWEKSKVHGEGFGDGLLTSRQTFQHLYATSELREYVEQVTGAR” here?
Its protein production is “failed”.

For “MQQKLENIKFVITDVDGVLTDGQLHYDANGEAIKSFHVRDGLGIKMLMDADIQVAVLSGRDSPILRRRIADLGIKLFFLGKLEKETACFDLMKQAGVTAEQTAYIGDDSVDLPAFAACGTSFAVADAPIYVKNAVDHVLSTHGGKGAFREMSDMILQAQGKSSVFDTAQGFLKSVKSMGQ”, which protein production is on record?
Its protein production is “not failed”.

For “MQQMNSRLKLTMAVALTAIVLLAGCASTPDWPVSARDNTKPVYSEKLLEQVPFYPQEKYQCGPASLAMMLNAQGLATNPDILKELVYLPGKEGSLQVEMVAGARAHDMLVYRLEPEPEAILAEVEAGNPVLVMQNLRLSWWPQWHFAVVVGYDSTEQVFILNTDTRRHYEMPYKVFYNTWSKAERWAAVILPPDQTPASAEMLPYLQAAHDLETTGHTLAAQRAYQTAITRWPEQPTPLMANANLQYQLGHFQNAVGSFLRVVEKFPGFSEGWNNLAIALNDAGCPARARQASECAAGLAPKRFKPLQDEARSHAADAAACPQIPACPSNAH”, which protein production is on record?
Its protein production is “failed”.

With “MQQPTASVVSYVAEYHKATETTMGRYKKVIEITGHDEVAAKLLEGLIDAGTRYFSKVVEMEHRMASARFRLDGEELRELTETLDRSRRLAHESLISSLHVFNRYIVKEYGEELKEAGIEGGIFPKPEANRDRIAIADWAGELLTGIYENRHR” as the sequence, how does the protein production read?
Its protein production is “not failed”.

Which protein production does the source give for “MQRFIDNSLESNWLWLTARICLALMFVASGLAKLFDYQASLEEMRAAGLEPAWLFNIATAVTLLAGSALVLLDRKLWLGAGALAVFLLLTILIVHTFWSKTGVEAKLAMFFALEHIAVIGGLIATAIASAQRQRLRQDVSVAATYQKA” here?
The protein production was “failed”.

For “MQRIRIIDSHTGGEPTRLVIGGFPDLGQGDMAERRRLLGERHDAWRAACILEPRGSDVLVGALLCAPVDPEACAGVIFFNNSGYLGMCGHGTIGLVASLAHLGRIGPGVHRIETPVGEVEATLHEDGSVSVRNVPAYRYRRQVSVEVPGIGRVSGDIAWGGNWFFLVAGHGQRLAGDNLDALTAYTVAVQQALDDQDIRGEDGGAIDHIELFADDPHADSRNFVLCPGKAYDRSPCGTGTSAKLACLAADGKLLPGQPWRQASVIGSQFEGRYEWLDGQPGGPIVPTIRGRAHVSAEATLLLADDDPFAWGIRR”, which protein production is on record?
Its protein production is “not failed”.

For “MQRPHVQEAEATAAPQQRTGASATFAELLKRVKAEGLLDLDPRYYIGRLALNTTLLLVGFAAFFALGDSWWQLVVALWMGLCGGQSAFMWHDAGHKAMFRSKKAASAVGYFHANLVNGVSFGWWVNHHNRHHSNPNHLDMDPDIGRRTAIFDIKQYPTRRGTQKFIVRYQSVLFFALLVTESFKMLKTAVLSIAQGKTKRPVLESFLLLARAAVYLTLVFTVLSPVLAVAFVLVQQAALGVYFGMIFAPNHKGMEVRDGDEETLDWLERQVLTSRNIRPSLFIDFLYGGLNYQVEHHLFPAMPQKNLARARELTRAYCAERGVPYHEVGFWASYREVASFLHEVSAPVRRGDVEEQIRRQAGQAA”, which protein production is on record?
The protein production was “failed”.

Which protein production does the source give for “MQSATDVAEYCKYDGFDGLKRAISLSDEEILNELDIAHLRGRGGAAYPLGKKWRHLYHAKGTTKYIVCNADEGEPGTFKDKVLLSEDPLSVIEGMIIAGYLFSAKAGYIYMRGEYRRIQKTFQEALDNARQAGFLGENILGIEGFNYDITIISGAGAYICGENSALLNSIEGKTGRPRVKPPHLADVGLYLQPTLVNNVESFASVPVILREGGQAFLEMGTADGGGTKLICLSGHIKNRGLYEVNLGTPLEEIIYGEQYGGGSATGRALKFIHFGGQSGPIGAVATLRDCLYSYEDLWAHDLSVGSGAIVVMDDSVNVVDYLVHVAAFFAHESCGKCTPCRLGTTRILELLSKFNRNEATASDLPRLEKMLTHVTRLSACGLGQSVANPMKSALALFPEEFETTAETEIYATSKGGWLEHHHHHH” here?
Its protein production is “not failed”.

With “MQSDHKEKIAILVDVQNVYYTCREAYRSNFDYNQFWYVATQEKEVVSAKAYAIASNDPKQRQFHHILRGVGFEVMLKPYIQRRDGSAKGDWDVGITLDAIEIAPDVDRVILVSGDGDFSLLVERIQQRYNKKVTVYGVPRLTSQTLIDCADNFVAIDDDFLL” as the sequence, how does the protein production read?
Its protein production is “not failed”.

For “MQSDVVLGAAHWVYLLSVVAIILTMVLRANAVVPSVLGTFLVVLAFTGSPIQALVGIFTASFVAAKELFNIFLVITFMTALLNALKVLQADVRMVQPLRRVMTNGHASFLILAGCTYGLSLFFWPTPAVPLVCAILLPAAVAAGLPPLAGAMAIAIAGQGMALSSEYVIGVAPGISAKAAGAAVSAAVVADRALVLSVITGAIALVMTYLFMRKHIVPGDTALLAAWQARAQDGELERIEGSGSFDKAELARGASQPVKGGAEARLAGWSRAFALITPIAFLGVIALMALPRLVPGLPALRGGDAAALVGGVAFMLMMLATLAAEGPRRMLDVCPEHVTDGFVFAFRAMGSVLPIAGFFFIGAAETAAPILGLESGHAPGLLFDLISAAQHLIPENHYLVAFGVLLVGMVTGIDGSGFAGLPLTGTLSGALGPVVGIDPATLAAVGQMGAVWTGGGTLIAWSSLIAVAGFARVHVLDMVRALMLPVLLALSVSTIAAILIWS”, which protein production is on record?
Its protein production is “failed”.

With “MQSLHGNCLIAYARHKYILTMVNGEYRYFNGGDLVFADASQIRVDKCVENFVFVSRDTLSLFLPMLKEEALNLHAHKKVSSLLVHHCSRDIPVFQEVAQLSQNKNLRYAEMLRKRALIFALLSVFLEDEHFIPLLLNVLQPNMRTRVCTVINNNIAHEWTLARIASELLMSPSLLKKKLREEETSYSQLLTECRMQRALQLIVIHGFSIKRVAVSCGYHSVSYFIYVFRNYYGMTPTEYQERSAQRLSNRDSAASIVAQGNFYGTDRSAEGIRL” as the sequence, how does the protein production read?
Its protein production is “failed”.

With “MQSPPHDPASALAIRNHYRQSQSRAARLRLLVDTGQELIQLPPEAMRKCVLQRACAFVAMDHGLLLEWGADNGVQTTARHGSKERLSTLETTADPLAIGPQWLERPGTHLPCVLLLPLRGADEGSFGTLVLANSVAISAPDGEDIESLQLLATLLAAHLENNRLLEALVARDRTMSQLVRQLFTAQEDERKRVAYDLHDGLAQTLAGLHQRLQGFAGRCPELPAQLDADLQAILKLAQHCVGEGRQLISGLRPAVLDDFGLWQAVDKEADRLREAGIIVQWTSQSLERLPSHLEIALFRIAQEGINNVLKHANASCVELALELSDGNVSLRLQDNGRGFITEKPINGTGVQKLGLVAMQERASLLGGRLTCVSRPGRGTRLRTIVPFTADKAIT” as the sequence, how does the protein production read?
Its protein production is “failed”.

For “MQSRSDGSWVLTLSRRLDAPSGEFAGVVLVTLQLKYFQNYYSTFEVGPHGTIGMTNDDGIVMVRRPDKQGVIGTSIAGTSIYVTMRARKHGTATYRSPIDRVERISSFAPARPYPLTVLTGFSVDDALANWRETARQRIVVAALGCTLLLGVGIWLDLQLRRMHRNEAKLSTEAWVDALTGIANRRAFDHRLSRALQDAVRLEAPLSVLMIDVDHFKLYNDTYGHVNGDACLRLIAGAIAGCSRRSEDLAARYGGEEFGMILPHTDAAGALRLADAVRNAVAELGLMHLSSPTSAHVTVSIGAATFEPGEAPLSPNAIVHDADSALYRAKQKGRNRTSA”, which protein production is on record?
The protein production was “failed”.

With “MQSYAADLIALGLLFLTGLAADQLGARSRLPRVTLLLICGLLAGSAGFDLIPESLAALYPIISVIALSMVAFLLGGELSLRTLSGHGRAIVVISVMVVLVTQLTVSAGLAMIGMPLAAALMVGALATATDPAATLDVIRQGRASGDFPRRLKGIVAIDDAWGVLLFGLVAVLAGAVEGNGSAHGLLGGALVEIAGSVALGLAVGLPGASLTGRLSGGEPLRIEALGLVFLTAGLSLWLDLSYLIAGMTAGAVIVNLAHHHKRAFREIEHIEWPFMIVFFILAGASLDLSALWAVGPLLMGYVALRVLGRVLGGWAGAALAATARGERPWYGPALLPQAGVAIGMALIAGDLFPQYADMITALAIGATVVFELAGPLAAAYALRRVRDSRDQSAA” as the sequence, how does the protein production read?
The protein production was “failed”.

Which protein production does the source give for “MQSYFSPLLDAMHAWLMLQLPGPVAGALLGGLHALVFIPLAALAWRVLSNESRRAQWVPLFALAGMCSAVFLSELGNTMGDTASAIPVLAALAVVLLAQFRARNGLHVVHLWAVAGALIGLAVALKLTNALYALALVPAVLCDGGRLRSRVLALSVLAGVALLVLLLVAGPWYWQVWQHLGNPLFPQFNGVFKSPLAQPVSIADVRWLPRTIGEQLIWPLLFTLKPQRIGDLGLVQAGWAVLYGVVAIAAGRALVRRPVRAAAVDRAAIVLLVFFGVAYALWQAIFSIHRYLVVLELLAPLVLWIVCRHAFAARANRKAAWLIGACALVAVVGWKDWGHESWARESFQVEQPVLGNPAASSVLLVGDEPQSWRVPLLPSQARYIGVATNISETDHYRQRVRALIAERPQLYAMLGAARDKQQVRIDRMNRLAQQFGWERQPGCSRLRWLVARGLRAELDTSQPDRCVLAIPKGKALDIAAADQAVREAAQQRLAAYGLTLDPARCRTLSSQVGQAVYPYQFCQLALPN” here?
Its protein production is “failed”.

Which protein production does the source give for “MQTIYRLKEPQIDREEDVRTIIQTFLFQFSEKAYGGPSFNRPACCFAPHIYGAGKTFVGQNFSAYLNIFAERECSNAQTFQQLHSSNDNPQPSELKVPWKHFAEKTLSVCFKLEESFSDAPFPSFRKALMYNIILNS” here?
The protein production was “not failed”.

Which protein production does the source give for “MQTKEKLASLSYLAVKSLLYELNLTPKPGLVDCHNNGAHNDMDFYTFLDSILSLSPFFKKYIEVGWLYHNESPQYLFNQLRKLGIEAEAAMFSATERVNTHKGINFSFALLLGATGSYLAKHIELIQEKRRFMPQDSLTICHLAGEMSMHLIQNDLSHVETKRNLTYGEKLFLQYGLKGLRGEASQGYPSLTQKALPFFRNELLKKQDIQISQLKLLLYLMTFIEDSNIIHRGGIKSWKKVQQEAQTLLEKDLPPYQLKEQLNSYNQILTDRHLSPGGAADLLSLTLYFSFLEQLI” here?
The protein production was “failed”.

Which protein production does the source give for “MQTKKNEIWVGIFLLAALLAALFVCLKAANVTSIRTEPTYTLYATFDNIGGLKARSPVSIGGVVVGRVADITLDPKTYLPRVTLEIEQRYNHIPDTSSLSIRTSGLLGEQYLALNVGFEDPELGTAILKDGDTIQDTKSAMVLEDLIGQFLYGSKGDDNKNSGDAPAAAPGNNETTEPVGTTK” here?
Its protein production is “failed”.
